Measured values reported in patent US20070282017A1 (Harvard, published 2007).
Blank lines part the entries; values can stand above or below the molecule they belong to.

Legend:
[1] = target: Endogenous Ser65-phosphorylated BIMEL in cerebellar granule neurons (UniProt O88498)
Recombinant GST-Pin1 = target: T1, Recombinant GST-Pin1 (UniProt Q13526 1-163); experiment: GST-Pin1 pulldown from 293T lysates, anti-FLAG immunoblot
T1 construct: Bait in GST pulldown assays; not shown: glutathione S-transferase (GST) fusion partner
T1 sequence (Q13526 whole entry, the tested form may be a part): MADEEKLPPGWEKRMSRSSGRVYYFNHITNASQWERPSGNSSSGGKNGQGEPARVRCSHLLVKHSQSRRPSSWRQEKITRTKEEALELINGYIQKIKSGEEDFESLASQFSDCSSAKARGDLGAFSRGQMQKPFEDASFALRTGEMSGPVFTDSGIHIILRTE

Endogenous Ser65-phosphorylated BIMEL in cerebellar granule neurons, sequence (O88498 whole entry): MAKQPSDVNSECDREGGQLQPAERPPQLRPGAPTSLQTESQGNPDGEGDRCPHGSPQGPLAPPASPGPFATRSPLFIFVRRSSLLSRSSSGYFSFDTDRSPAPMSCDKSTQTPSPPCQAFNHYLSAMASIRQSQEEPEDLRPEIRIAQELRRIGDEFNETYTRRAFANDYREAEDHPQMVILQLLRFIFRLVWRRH

Molecule: Endogenous Pin1 in cerebellar granule neurons
BIMEL protein levels in granule neurons after Pin1 RNAi lentivirus (immunoblot) [1]: 46±1.5% reduction

binding result (Recombinant GST-Pin1): no binding
B1: FLAG-tagged JIP3 fragment 144-241 (other, UniProt Q9ESN9 144-241, looked up)
chain: ADQISRLEERESEMKKEYNALHQRHTEMIQTYVEHIERSKMQQVGGSGQTESSLPGRSRKERPTSLNVFPLADGMVRAQMGGKLVPAGDHWHLSDLGQ
notes: Expressed in 293T cells; not shown: 3xFLAG tag of the 3xFLAG CMV-7.1 vector
